Common to all, as to assay: cell-based or functional assay
Assay [1] has as its target TTX-sensitive Nav channels in mouse DRG neurons.
Assay [2] deals with human Nav1.7 voltage-gated sodium channel (human) (UniProt Q15858).
Assay [3] concerns the target human voltage-gated sodium channel Nav1.5 (human) (UniProt Q14524).
The target of assay [4] is human voltage-gated sodium channel Nav1.4 (human) (UniProt P35499).
The target in assay [5] is human voltage-gated sodium channel Nav1.7 (human) (UniProt Q15858).
Assay [6] has as its target human voltage-gated sodium channel Nav1.3 (human) (UniProt Q9NY46).

Chain of human voltage-gated sodium channel Nav1.7 (human) (Q15858 whole entry): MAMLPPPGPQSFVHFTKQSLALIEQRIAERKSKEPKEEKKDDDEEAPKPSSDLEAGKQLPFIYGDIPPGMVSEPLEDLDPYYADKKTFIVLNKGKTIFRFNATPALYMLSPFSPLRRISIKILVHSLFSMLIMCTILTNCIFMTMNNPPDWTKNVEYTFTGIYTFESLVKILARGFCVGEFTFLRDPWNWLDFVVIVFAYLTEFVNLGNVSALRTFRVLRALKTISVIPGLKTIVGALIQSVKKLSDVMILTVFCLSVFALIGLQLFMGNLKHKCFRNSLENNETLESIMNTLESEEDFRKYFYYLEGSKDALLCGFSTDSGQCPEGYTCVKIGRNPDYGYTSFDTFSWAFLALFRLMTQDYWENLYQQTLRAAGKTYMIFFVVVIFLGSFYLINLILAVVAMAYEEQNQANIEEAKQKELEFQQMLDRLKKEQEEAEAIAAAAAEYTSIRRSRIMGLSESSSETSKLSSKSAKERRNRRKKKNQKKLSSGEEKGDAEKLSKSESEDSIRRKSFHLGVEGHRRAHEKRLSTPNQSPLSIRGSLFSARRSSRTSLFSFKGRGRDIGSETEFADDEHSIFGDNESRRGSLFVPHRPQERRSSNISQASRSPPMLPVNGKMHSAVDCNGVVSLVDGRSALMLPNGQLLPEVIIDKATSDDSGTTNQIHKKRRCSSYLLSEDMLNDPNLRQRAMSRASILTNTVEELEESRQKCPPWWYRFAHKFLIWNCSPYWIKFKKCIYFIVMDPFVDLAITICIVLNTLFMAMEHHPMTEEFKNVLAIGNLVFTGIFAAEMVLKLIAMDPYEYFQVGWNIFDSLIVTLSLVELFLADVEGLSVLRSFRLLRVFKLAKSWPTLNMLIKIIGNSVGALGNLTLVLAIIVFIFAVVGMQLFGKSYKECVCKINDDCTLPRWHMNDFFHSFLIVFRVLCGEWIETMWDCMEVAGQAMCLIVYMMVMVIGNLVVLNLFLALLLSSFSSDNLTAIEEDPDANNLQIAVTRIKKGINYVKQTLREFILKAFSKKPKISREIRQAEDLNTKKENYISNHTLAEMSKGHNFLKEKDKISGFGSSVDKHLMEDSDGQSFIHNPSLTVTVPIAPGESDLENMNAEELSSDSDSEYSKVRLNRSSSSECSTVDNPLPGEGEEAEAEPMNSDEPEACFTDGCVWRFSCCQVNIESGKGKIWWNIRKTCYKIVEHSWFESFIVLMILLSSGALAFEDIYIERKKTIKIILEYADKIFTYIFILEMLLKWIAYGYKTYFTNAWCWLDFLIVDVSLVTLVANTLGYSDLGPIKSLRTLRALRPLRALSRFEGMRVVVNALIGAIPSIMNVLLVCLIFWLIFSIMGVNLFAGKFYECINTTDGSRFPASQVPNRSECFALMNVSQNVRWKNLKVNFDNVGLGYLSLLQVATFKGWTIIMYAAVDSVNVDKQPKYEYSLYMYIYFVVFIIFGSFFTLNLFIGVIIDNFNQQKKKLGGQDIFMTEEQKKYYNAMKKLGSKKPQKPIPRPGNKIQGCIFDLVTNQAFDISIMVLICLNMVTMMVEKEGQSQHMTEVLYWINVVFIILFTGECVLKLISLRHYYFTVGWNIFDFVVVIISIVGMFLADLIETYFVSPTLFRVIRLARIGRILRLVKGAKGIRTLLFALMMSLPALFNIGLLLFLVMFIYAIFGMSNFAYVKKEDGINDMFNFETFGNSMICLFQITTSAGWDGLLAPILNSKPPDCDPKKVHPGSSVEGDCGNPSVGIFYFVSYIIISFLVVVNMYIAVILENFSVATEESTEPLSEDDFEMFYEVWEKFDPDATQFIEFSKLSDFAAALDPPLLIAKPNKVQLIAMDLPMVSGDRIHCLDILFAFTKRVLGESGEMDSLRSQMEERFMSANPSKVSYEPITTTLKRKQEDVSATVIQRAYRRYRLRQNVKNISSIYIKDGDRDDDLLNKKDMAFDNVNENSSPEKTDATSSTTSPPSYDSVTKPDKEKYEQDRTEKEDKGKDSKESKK
Chain of human voltage-gated sodium channel Nav1.4 (human) (P35499 whole entry): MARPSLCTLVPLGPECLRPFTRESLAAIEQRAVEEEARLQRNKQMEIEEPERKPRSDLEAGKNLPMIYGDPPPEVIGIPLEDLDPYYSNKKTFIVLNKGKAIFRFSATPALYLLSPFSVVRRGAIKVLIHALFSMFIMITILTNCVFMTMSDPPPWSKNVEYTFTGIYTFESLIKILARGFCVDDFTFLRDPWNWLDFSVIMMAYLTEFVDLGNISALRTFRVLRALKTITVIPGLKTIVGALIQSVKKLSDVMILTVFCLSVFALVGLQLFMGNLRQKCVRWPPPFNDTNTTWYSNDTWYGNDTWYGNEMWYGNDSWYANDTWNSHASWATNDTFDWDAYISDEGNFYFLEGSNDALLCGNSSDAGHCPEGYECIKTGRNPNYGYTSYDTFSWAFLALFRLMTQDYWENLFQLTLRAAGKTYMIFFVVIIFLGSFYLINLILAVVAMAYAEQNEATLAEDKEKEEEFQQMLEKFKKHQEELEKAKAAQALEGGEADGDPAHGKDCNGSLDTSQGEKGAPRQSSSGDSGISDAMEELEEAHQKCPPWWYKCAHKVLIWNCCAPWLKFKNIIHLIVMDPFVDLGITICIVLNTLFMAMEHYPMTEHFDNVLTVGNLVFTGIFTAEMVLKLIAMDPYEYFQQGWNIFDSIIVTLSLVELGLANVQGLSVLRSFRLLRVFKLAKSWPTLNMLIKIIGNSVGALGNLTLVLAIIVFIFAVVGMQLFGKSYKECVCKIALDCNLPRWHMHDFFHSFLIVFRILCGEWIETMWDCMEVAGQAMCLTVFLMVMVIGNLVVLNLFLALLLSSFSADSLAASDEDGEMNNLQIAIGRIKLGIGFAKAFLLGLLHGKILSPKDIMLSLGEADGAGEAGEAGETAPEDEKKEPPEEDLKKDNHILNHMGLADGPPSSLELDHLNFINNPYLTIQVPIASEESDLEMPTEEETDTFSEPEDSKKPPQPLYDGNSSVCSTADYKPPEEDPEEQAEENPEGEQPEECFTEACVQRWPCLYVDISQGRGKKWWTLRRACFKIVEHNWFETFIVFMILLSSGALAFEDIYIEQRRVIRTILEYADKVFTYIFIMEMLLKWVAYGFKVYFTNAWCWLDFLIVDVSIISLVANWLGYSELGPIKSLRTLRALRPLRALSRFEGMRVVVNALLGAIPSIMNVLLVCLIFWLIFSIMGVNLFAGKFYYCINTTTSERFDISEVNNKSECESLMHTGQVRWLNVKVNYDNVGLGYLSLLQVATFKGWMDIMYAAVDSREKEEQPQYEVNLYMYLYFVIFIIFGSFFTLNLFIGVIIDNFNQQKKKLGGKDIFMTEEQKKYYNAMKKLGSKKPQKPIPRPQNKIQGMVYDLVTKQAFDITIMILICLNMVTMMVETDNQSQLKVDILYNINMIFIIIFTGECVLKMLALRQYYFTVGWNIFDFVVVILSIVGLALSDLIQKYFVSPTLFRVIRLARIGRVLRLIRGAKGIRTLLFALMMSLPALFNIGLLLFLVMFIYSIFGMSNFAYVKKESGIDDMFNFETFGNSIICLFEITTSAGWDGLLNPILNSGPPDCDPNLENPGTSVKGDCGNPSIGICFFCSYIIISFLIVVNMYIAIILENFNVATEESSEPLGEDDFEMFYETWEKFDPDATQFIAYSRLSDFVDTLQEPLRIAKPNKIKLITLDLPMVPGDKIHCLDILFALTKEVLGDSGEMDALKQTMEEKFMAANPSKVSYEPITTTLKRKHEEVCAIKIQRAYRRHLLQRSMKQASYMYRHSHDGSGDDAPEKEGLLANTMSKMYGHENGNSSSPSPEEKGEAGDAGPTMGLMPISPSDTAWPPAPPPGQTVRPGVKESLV
Chain of human Nav1.7 voltage-gated sodium channel (human) (Q15858 whole entry): as the sequence (Q15858 whole entry) above

Regarding “Pra-[Nle6;5-BrW24;Glu28]JzTx-V(1-29) (peptide)”, the WCPC Mean IC50, partially inactivated worked out at 3.8 nM in assay [1] and 0.13 nM in assay [2].

On to “Pra-[Nle6;Glu12,28]JzTx-V(1-29) (peptide)”, for which the WCPC Mean IC50, partially inactivated in assay [1] amounted to 144 nM.

As for “[Cit7;Glu20;Tyr28]JzTx-V(1-29) (peptide)”, the IC50, IonWorks Quattro electrophysiology in assay [3] is above 7 µM; in assay [4], above 7 µM; in assay [5], 5.8 µM; in assay [6] it was above 7 µM.

As to “Pra-[Nle6;Glu14,28]JzTx-V(1-29) (peptide)”, the WCPC Mean IC50, partially inactivated in assay [1] stood at 99.8 nM.

“[Nle6;Pra11;Glu20;Trp29]JzTx-V(1-29) (peptide)” gave an IC50, IonWorks Quattro electrophysiology in assay [5] of 0.026 µM.

As for “CyA-[Nle6; Val8; Lys17; Glu28]JzTx-V(1-29) (peptide)”, the PX hNav1.7 Tonic IC50 in assay [5] amounted to 26.6 nM.

In the case of “[Nva7;Glu20;Tyr28]JzTx-V(1-29) (peptide)”, the IC50, IonWorks Quattro electrophysiology in assay [3] was above 7 µM; in assay [4] it was above 7 µM; in assay [5], 4.5 µM; in assay [6], above 7 µM.

These data come from patent US20160024159A1.
